This data set can be described thus: amyloid nucleation score (Sup35N fusion, yeast selection) (log enrichment); library NNK1; higher = more nucleation; inactive = no reads after selection. Put shortly: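 Plasmid inserts were Illumina-sequenced at input and output from psi-negative yeast expressing Sup35N fused to peptides of 20 random codons. The yeast were induced with 100 μM copper sulfate for 24 hours and grown 7 days at 30°C on medium lacking adenine and uracil, and sequences with under 100 input reads were excluded. Nucleation score is the DiMSum log enrichment of output over input reads, centred on the mode score of non-aggregating sequences.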

± gives the uncertainty stated by the source.

From the supplement of paper PMC12042874 come the findings set out here.

As for SNLRSVMKRNYTVRLFCVG, the amyloid nucleation score entry was “inactive”.

Take LWNLVLKCD: the amyloid nucleation score was -0.215 ± 0.29.

As for MFNHV, the amyloid nucleation score worked out at 0.807 ± 1.

Turning to DVPGSRQVLVYFFNQIFDEM, the amyloid nucleation score is 5.9 ± 0.088.

As for SWNNLIVVRSKVDGCAVSAG, the amyloid nucleation score was 0.504 ± 0.73.

Regarding DYRADFNNFVFEERSSYISV, the amyloid nucleation score is -0.236 ± 0.49.

As to NLLYTY, the amyloid nucleation score turned out to be 1 ± 0.53.

In turn, MSRIEGHRLDVLSRHFR gave an amyloid nucleation score of -0.046 ± 0.32.

Regarding WNVDVGSLC, the amyloid nucleation score result is “inactive”.

CPVGQTNCQDL yielded an amyloid nucleation score of 0.072 ± 0.51.

GTMVSLKTGFKDTSRLLNWS: the amyloid nucleation score was -0.748 ± 0.41.

Substance RFFYWG displayed an amyloid nucleation score of 0.375 ± 1.2.

As for PFTVTKFRSYEISVINLPNW, the amyloid nucleation score worked out at 1.34 ± 0.11.

With NCDKMVNMLPLRFSDIALSM, the amyloid nucleation score was -0.566 ± 0.5.

Consider IKWLGLTSHRWIYTSGLRIL, for which the amyloid nucleation score result was “inactive”.

IGRMIRVCYVVCYEVDMTTS showed an amyloid nucleation score of 0.725 ± 0.47.

DTSGSYMLSYLWGYWQLRSA displayed an amyloid nucleation score of 0.073 ± 0.56.

VSSLWFKDYQYVFDDCYAKP: the amyloid nucleation score is -0.258 ± 0.56.

TGDLVTLGGVGL had an amyloid nucleation score of 0.309 ± 0.42.

The substance MSDVCNVMKKVMQGTCFCGH displayed an amyloid nucleation score of -0.293 ± 0.27.

On to IDNMGT, for which the amyloid nucleation score stood at 2.4 ± 0.12.

MDCTFINGFRVFNLSNSR returned an amyloid nucleation score of 7.967 ± 0.059.

Take NESEFLFSKAHRMVVIP: the amyloid nucleation score result was “inactive”.

Substance WSLWARWSFRHRCQRMHLLL gave an amyloid nucleation score of 0.174 ± 0.4.

For the substance TEEFYPARSCMK, the amyloid nucleation score is -1.87 ± 1.3.

As for SLLCTIYRVCADPYMGQNMT, the amyloid nucleation score entry was “inactive”.

As to SGHTVVMVMNMCCVSFHLRC, the amyloid nucleation score turned out to be 6.562 ± 0.048.

VLMFIINSCKR returned an amyloid nucleation score of 7.028 ± 0.052.

In turn, LVALDNAENFRSRKQWIGIR displayed an amyloid nucleation score of -0.599 ± 1.2.

Substance SWGFSMLRMEEWRMPVLFYS gave an amyloid nucleation score of -0.446 ± 0.58.

The substance YPAVNRWSLAVFSVRVRLAG showed an amyloid nucleation score of -0.046 ± 0.38.

In turn, FVQFTCSIRDYCA had an amyloid nucleation score of 0.033 ± 0.97.

Substance LRCCRVN yielded an amyloid nucleation score of -0.474 ± 0.42.

In the case of LAKGGPL, the amyloid nucleation score is -0.813 ± 0.54.

Turning to IYPKLDCYVAVVLLDLSGVT, the amyloid nucleation score result was “inactive”.

In turn, KSAASILCTMNVSYRSNFLE returned an amyloid nucleation score of 1.08 ± 0.37.

Substance RPSITNRPC registered an amyloid nucleation score of 0.735 ± 0.83.

The substance YVIEIMISHVPAIWRGYTCS came in with an amyloid nucleation score of 0.554 ± 0.71.

For GGLDSNRQLVKFYTSWNYNC, the amyloid nucleation score was -0.057 ± 0.39.

TCKTHHRGTPGATVFPKDTA showed an amyloid nucleation score of 0.17 ± 0.45.

As to LGTVRVLEHEVVWHYVLEAR, the amyloid nucleation score came to 0.485 ± 0.6.

The substance CFNMYLDVFDRVCRM yielded an amyloid nucleation score of 1.85 ± 0.13.

For the substance LRELSVCWPT, the amyloid nucleation score was -0.153 ± 0.44.

Substance FPNALDYLYVV came in with an amyloid nucleation score of -0.243 ± 0.22.

Substance YMLMKGSVRYH gave an amyloid nucleation score of 2.49 ± 0.2.

For RRRASGHRASY, the amyloid nucleation score was -0.52 ± 0.39.

Turning to LRTCFEQRENMIA, the amyloid nucleation score is -0.229 ± 0.79.

The substance INDESFWDCIVPNRMKGFSG registered an amyloid nucleation score of 0.325 ± 0.42.

Substance FDKYLRWFMKTLCNIDNWRW returned an amyloid nucleation score of -0.233 ± 0.24.

CCNGRLIIGNSNGNESYLSK came in with an amyloid nucleation score of -0.384 ± 0.37.

SCHVTFKVFFLFAGPCREVL: the amyloid nucleation score turned out to be 1.98 ± 0.27.

Substance QPFTWVLQKNTRT yielded an amyloid nucleation score of 0.714 ± 0.58.

Take YLCDSSLGVVYSFLHCRMVD: the amyloid nucleation score was -0.369 ± 0.67.

IFGFVWDPKTNYMTGLFASI showed an amyloid nucleation score of -0.231 ± 0.5.

YSRSGRTTNLAPNLHLRTMS returned an amyloid nucleation score of 0.136 ± 1.2.

For the substance PLLMGEEFRYSFSLCYNTSS, the amyloid nucleation score is -0.548 ± 1.7.

As for RSSNLVCYFFSVWWY, the amyloid nucleation score came to 2.02 ± 0.44.

On to CWVYFSNSSVILRR, for which the amyloid nucleation score is 0.074 ± 0.84.

The substance VGRYFTMCFYKSMHRCRRVF yielded an amyloid nucleation score of 0.266 ± 0.38.

SSSEGRWMGYGP displayed an amyloid nucleation score of -0.276 ± 0.53.

For SFCLFNVIYQFIGKRCPNSG, the amyloid nucleation score was determined as 3.82 ± 0.1.

As to TLFRGMGYSWNVNKPDARKV, the amyloid nucleation score is -0.403 ± 1.4.

Take QLLSRLGIS: the amyloid nucleation score was -0.641 ± 1.4.

The substance YVSEEMNGLVMYQSNWGSVT displayed an amyloid nucleation score of 0.224 ± 0.54.

IILGL registered an amyloid nucleation score of 0.006 ± 0.73.

Substance VCSLSVYRTCSRDLFNFIWV registered an amyloid nucleation score of 0.262 ± 0.41.

On to SLVRMLRHLRMDEKFLLIRY, for which the amyloid nucleation score stood at 0.268 ± 0.53.

ASNYR registered an amyloid nucleation score of 0.008 ± 0.88.

Take IPNGNVSSSLSVGIMPVAFR: the amyloid nucleation score was found to be 4.36 ± 0.092.

For TGKAVTSGWKNIVSSITSQR, the amyloid nucleation score is -0.434 ± 0.58.

FLHVPVLFSFTHCFMG yielded an amyloid nucleation score of 3.03 ± 0.13.

On to VIVVVPLFGGRLCRVVRHR, for which the amyloid nucleation score was determined as 0.278 ± 0.62.

PNYEVDCDMFYSSFVGGFRV returned an amyloid nucleation score of 0.173 ± 1.4.

Regarding LHTAETGRLHNAYVILVVYC, the amyloid nucleation score result is “inactive”.

With TKCHIQLYIALASVAGGSGF, the amyloid nucleation score came to 2.36 ± 0.29.

The substance AKCAVASAIKVQQDDADGPD had an amyloid nucleation score of -0.012 ± 0.52.

As for DFYTVLEKYVM, the amyloid nucleation score is -0.157 ± 0.7.

VYSFDMM came in with an amyloid nucleation score of 0.256 ± 0.52.

Take QVWWDVNEPPDLTPQGSRWG: the amyloid nucleation score entry was “inactive”.

SNNHQFFCDTFDIGWWEVGR registered an amyloid nucleation score of -1.63 ± 2.4.

ANLLINGFLSRSRDNYACYR showed an amyloid nucleation score of 1.56 ± 0.18.

With NYQWIRIVIMYVLSMTASLS, the amyloid nucleation score entry is “inactive”.

On to KCREIALHYPAYIPFVLIAY, for which the amyloid nucleation score is -0.031 ± 0.82.

NSCNDRFHLAMRQGF yielded an amyloid nucleation score of 0.067 ± 0.84.

TSLPTAVWLKSARQWVEYGL displayed an amyloid nucleation score of 1.18 ± 0.54.

On to CTDPFQDLTRELLLLVCIGL, for which the amyloid nucleation score was -0.201 ± 0.65.

Take IKTMISQY: the amyloid nucleation score is -0.406 ± 0.25.

Take RCKFESVKRVS: the amyloid nucleation score was determined as 1.42 ± 0.54.

On to LDMKSFEQLVKQLPCTWADD, for which the amyloid nucleation score was found to be 0.222 ± 0.41.

Regarding SWCHVKIVSYRVSEVR, the amyloid nucleation score was determined as 0.228 ± 0.32.

Turning to DSRPCGYSRITFVCKGCAPC, the amyloid nucleation score was found to be 0.53 ± 0.79.

As for SMLALGFPSVNCQWTGATFS, the amyloid nucleation score amounted to 1.22 ± 0.97.

CLETRYL showed an amyloid nucleation score of 1.15 ± 0.54.

SKTSKWYPTDKLNTGALFLK came in with an amyloid nucleation score of -0.321 ± 0.34.

Turning to SRNRLFVRRVRLANSLSFNA, the amyloid nucleation score is -0.226 ± 1.1.

Take YEGYGPCWRKLYS: the amyloid nucleation score turned out to be 0.15 ± 0.36.

For the substance NARFWVRCIDVHFGVKAGDG, the amyloid nucleation score entry was “inactive”.

For DNSLFLYQRAR, the amyloid nucleation score was -0.449 ± 0.82.

Substance SGNMNSLYWKSQKCNSYSFP had an amyloid nucleation score of 0.935 ± 1.1.

Take PTRPMTTELRRKVRRPALDG: the amyloid nucleation score is -0.139 ± 0.62.

Substance GRWWRLLLYCLVAVLAFVGF displayed an amyloid nucleation score of 1.33 ± 0.6.

For the substance RIHRVHRKF, the amyloid nucleation score was -0.33 ± 0.38.

As for GVLNVL, the amyloid nucleation score is -0.418 ± 0.62.

As for AVSLFAGDQFDDTTRSAQGI, the amyloid nucleation score was -0.306 ± 0.74.
